The source of these data is US20100136007A1 (Five Prime, published 2010).

For orientation: Kd means the concentration at which binding is half-saturated. A low value points to tighter binding. As a reminder, the koff is the first-order rate constant of dissociation. A higher koff goes with fast dissociation. As a reminder, the kon is the second-order rate constant of association.

This assay concerns the target T1, hCSF1R-ECD.506 (human, UniProt P07333 20-506).
T1 construct: also called hCSF1R.506; human CSF1R.506
Put plainly: SPR, Biacore. The protocol:
The CSF1 and IL34 ligand binding affinity and kinetics of the hCSF1R.506-GS-Fc and hCSF1R.512-GS-Fc fusion proteins were determined using Biacore® X surface plasmon resonance (SPR) technology (Uppsala, Sweden). CSF1 and IL34 are the only two ligands known to interact with the CSF1R ECD. The CSF1 and IL34 binding experiments were carried out using methodology similar to that described in Lin et al., Science 320:807-811, (2008).
In order to compare the relative ligand binding affinity of hCSF1R.506 (SEQ ID NO:2) and hCSF1R.506-Fc (SEQ ID NO:6) proteins expressed in CHO cells to CSF1, a Biacore® assay was used.

T1 sequence (P07333 20-506 limits assumed): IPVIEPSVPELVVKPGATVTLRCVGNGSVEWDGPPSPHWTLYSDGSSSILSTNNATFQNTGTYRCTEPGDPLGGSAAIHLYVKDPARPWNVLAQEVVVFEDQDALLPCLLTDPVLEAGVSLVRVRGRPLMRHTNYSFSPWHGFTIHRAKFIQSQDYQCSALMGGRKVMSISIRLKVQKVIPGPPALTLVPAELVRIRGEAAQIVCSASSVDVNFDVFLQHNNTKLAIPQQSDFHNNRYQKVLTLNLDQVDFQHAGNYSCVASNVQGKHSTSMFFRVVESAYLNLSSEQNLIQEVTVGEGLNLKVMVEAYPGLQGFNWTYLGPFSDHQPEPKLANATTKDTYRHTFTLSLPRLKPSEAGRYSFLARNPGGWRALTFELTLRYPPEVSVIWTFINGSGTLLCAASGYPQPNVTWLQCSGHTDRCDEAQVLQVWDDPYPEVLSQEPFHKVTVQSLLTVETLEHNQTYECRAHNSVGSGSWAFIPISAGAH

B1: colony stimulating factor 1 ligand (CSF1) (ligand, UniProt P09603 33-190, looked up)
chain: EEVSEYCSHMIGSGHLQSLQRLIDSQMETSCQITFEFVDQEQLKDPVCYLKKAFLLVQDIMEDTMRFRDNTPNAIAIVQLQELSLRLKSCFTKDYEEHDKACVRTFYETPLQLLEKVKNVFNETKNLLDKDWNIFSKNCNNSFAECSSQDVVTKPDCN
notes: also called MCSF; MGC31930
B1: binding was characterised by a dissociation constant (Kd) of 28.9 nM, the off-rate (koff) was 0.000809 s⁻¹ and the association rate constant (kon) came out at 28000 M⁻¹ s⁻¹.
